{"source": "paper PMC2652713", "about": "“Molecular Blocking of CD23 Supports Its Role in the Pathogenesis of Arthritis” (PLoS ONE, 2009)", "origin": "cited, not measured here", "molecules": {"B1": {"name": "IL-10: a well-known immunoregulator and Th-1 inhibitor cytokine (protein, UniProt P22301 19-178, looked up)", "Interleukin-10": "SPGQGTQSENSCTHFPGNLPNMLRDLRDAFSRVKTFFQMKDQLDNLLLKESLLEDFKGYLGCQALSEMIQFYLEEVMPQAENQDPDIKAHVNSLGENLKTLRLRLRRCHRFLPCENKSKAVEQVKNAFNKLQEKGIYKAMSEFDIFINYIEAYMTMKIRN"}}, "tested_on": "human macrophages and epithelial cells", "source_text": "Authors reported overexpression of membrane bound and sCD23 during acute juvenile or adult arthritis, with a clear pro-inflammatory property in this form. In the present study, we report similar observations in peripheral and synovial liquid monocytes/macrophages from adult arthritic patients (Figure 5)."}
{"molecule": "B1", "values": [{"measurement": "CD23-mediated TNF-α production", "result": "decreased"}, {"measurement": "CD23-mediated nitric oxide production", "result": "decreased"}]}
